Laboratory results from PMC5570508, “Structural analysis of P. falciparum KAHRP and PfEMP1 complexes with host erythrocyte spectrin suggests a model for cytoadherent knob protrusions” (PLoS Pathogens, 2017).

B1: KAHRP 5´-repeat scrambled sequence, Scramble 4 (peptide)
chain: CESNKKNGHEKGGKKSESKHKKKDHAEKEPKNKKGAHHDDSDKSKTKHNSESDEKVHKSESKEKSKDKVGNKGKEKKVSNSEKKDKNKKDHSHSKETKEKDEKDKKHKSSNKENK
modifications: 5-carboxyfluorescein (5-FAM) on a single cysteine at the protein N-terminus
notes: amino acid content of the KAHRP 5´ repeat, randomly scrambled; also called scrambled peptide; source: E. coli, recombinant, purified as the KAHRP fragments; not shown: His10, N-terminal, cleaved
B2: KAHRP 5´-repeat scrambled sequence, Scramble 3 (peptide)
chain: CHDNKGKKSHDSSGDKKHKNKKSKKKKESPTVDKKEKHEVKKKHKNKKDDVHSEEASKEENKKTEKGKNEKESNAKKSKNSHHDSKKGKEHEGSSKNKDHDKKEKNSDESKKGES
modifications: 5-carboxyfluorescein (5-FAM) on a single cysteine at the protein N-terminus
notes: as for B1
B3: KAHRP 5´-repeat scrambled sequence, Scramble 1 (peptide)
chain: CGGSDNSEKNKKEHKKEKSAHEKEKDKKAEHKKDKDGSKKSSEKKKNSTKEHESSEHNHSEHKKSDNHKKKKENKEDDSEKEKNKKSDVVSDNKKTHKKGGKKKSKPKGNKSVHD
modifications: 5-carboxyfluorescein (5-FAM) on a single cysteine at the protein N-terminus
notes: as for B1
B4: KAHRP 5´-repeat scrambled sequence, Scramble 2 (peptide)
chain: CEKSDDKKESKSKHDGSVKKKSEEKKKDNESSTKSDGKNKKNKKHNEHESKHEHKGEGKKKEHGSNEDHKKKNDNEVKGKHKKSPKKKAETKKNSSHDSDKKEKDSSKKVHNEAK
modifications: 5-carboxyfluorescein (5-FAM) on a single cysteine at the protein N-terminus
notes: as for B1

Target: T1, spectrin β chain domains 10–14 (human, UniProt P11277 1272-1804)
T1 construct: human erythrocyte β spectrin, UniProt P11277, residues 1272-1804; also called β10–14; source: E. coli Rosetta2(DE3), purified (Talon, Q-Sepharose, Superdex 75 or 200); not shown: His10 or His6 (modified pET16b or pET15b), N-terminal, cleaved
T1 sequence (looked up): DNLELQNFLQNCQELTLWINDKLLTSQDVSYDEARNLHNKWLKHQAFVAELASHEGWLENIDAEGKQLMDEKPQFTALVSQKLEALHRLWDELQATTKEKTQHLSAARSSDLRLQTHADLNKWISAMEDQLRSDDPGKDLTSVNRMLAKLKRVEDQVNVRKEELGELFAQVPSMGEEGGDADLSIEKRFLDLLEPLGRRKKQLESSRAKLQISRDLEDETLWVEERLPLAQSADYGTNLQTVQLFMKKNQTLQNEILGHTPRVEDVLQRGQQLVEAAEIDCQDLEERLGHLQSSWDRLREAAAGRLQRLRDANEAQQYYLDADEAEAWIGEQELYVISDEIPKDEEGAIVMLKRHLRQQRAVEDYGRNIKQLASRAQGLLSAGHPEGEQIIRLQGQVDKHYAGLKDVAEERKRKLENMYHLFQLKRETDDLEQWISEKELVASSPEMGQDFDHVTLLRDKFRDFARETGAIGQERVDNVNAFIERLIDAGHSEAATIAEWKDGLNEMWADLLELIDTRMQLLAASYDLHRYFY
Test: fluorescence polarisation; titration: 5-FAM-labeled protein at 0.5 or 1 μM titrated with unlabeled protein; 20°C; analysis buffer (20 mM NaH2PO4, 50 mM NaCl, 1 mM DTT pH 7); single site binding model
Details: both partners purified

Row | Binder | binding result
1 | B1 | binds
2 | B2 | binds
3 | B3 | binds
4 | B4 | binds
